Experimental data published in patent US20170183421A1 (Gilead, published 2017).
Values joined by “and” are separate entries in the source; they are usually repeats but may differ in a detail not shown here. Identical values can stand only once. Like-named read-outs stand apart in the source and are kept apart here.

What was measured:
Cynomolgus monkey MMP9 [1] = biological target: T1, Cynomolgus monkey MMP9 (cynomolgus monkey, UniProt A0A2K5UU71 20-706); test: ELISA
T1 construct: also called cynomolgus MMP9

Rat MMP9 [2] = biological target: T2, Rat MMP9 (rat, UniProt P50282 20-708, limits assumed); test: ELISA
Human MMP9 [3] = biological target: T3, Human MMP9 (human, UniProt P14780 20-707); test: ELISA
T3 construct: also called human matrix metalloproteinase-9; gelatinase-B

Human MMP9 [4] = biological target: T3, Human MMP9; test: cell-based or functional assay
Cynomolgus monkey MMP9 [5] = biological target: T1, Cynomolgus monkey MMP9; test: cell-based or functional assay
Mouse MMP9 [6] = biological target: T4, Mouse MMP9 (mouse, UniProt P41245 20-730, limits assumed); test: cell-based or functional assay
Rat MMP9 [7] = biological target: T2, Rat MMP9; test: cell-based or functional assay
Human MMP9 [8] = biological target: T3, Human MMP9; test: cell-based or functional assay; remark: listed apart in the source
Cynomolgus monkey MMP9 [9] = biological target: T1, Cynomolgus monkey MMP9; test: ELISA; remark: listed apart in the source
Rat MMP9 [10] = biological target: T2, Rat MMP9; test: ELISA; remark: listed apart in the source
Human MMP9 [11] = biological target: T3, Human MMP9; test: ELISA; remark: listed apart in the source
Human MMP9 [12] = biological target: T3, Human MMP9; test: SPR
Cynomolgus monkey MMP9 [13] = biological target: T1, Cynomolgus monkey MMP9; test: ELISA; remark: listed apart in the source
Mouse MMP9 [14] = biological target: T4, Mouse MMP9; test: ELISA
Rat MMP9 [15] = biological target: T2, Rat MMP9; test: ELISA; remark: listed apart in the source
Human MMP9 [16] = biological target: T3, Human MMP9; test: ELISA; remark: listed apart in the source
Human MMP9 [17] = biological target: T3, Human MMP9; test: direct binding and SPR assays
Mouse MMP9 [18] = biological target: T4, Mouse MMP9; test: ELISA; remark: listed apart in the source

T2 sequence (P50282 20-708 limits assumed): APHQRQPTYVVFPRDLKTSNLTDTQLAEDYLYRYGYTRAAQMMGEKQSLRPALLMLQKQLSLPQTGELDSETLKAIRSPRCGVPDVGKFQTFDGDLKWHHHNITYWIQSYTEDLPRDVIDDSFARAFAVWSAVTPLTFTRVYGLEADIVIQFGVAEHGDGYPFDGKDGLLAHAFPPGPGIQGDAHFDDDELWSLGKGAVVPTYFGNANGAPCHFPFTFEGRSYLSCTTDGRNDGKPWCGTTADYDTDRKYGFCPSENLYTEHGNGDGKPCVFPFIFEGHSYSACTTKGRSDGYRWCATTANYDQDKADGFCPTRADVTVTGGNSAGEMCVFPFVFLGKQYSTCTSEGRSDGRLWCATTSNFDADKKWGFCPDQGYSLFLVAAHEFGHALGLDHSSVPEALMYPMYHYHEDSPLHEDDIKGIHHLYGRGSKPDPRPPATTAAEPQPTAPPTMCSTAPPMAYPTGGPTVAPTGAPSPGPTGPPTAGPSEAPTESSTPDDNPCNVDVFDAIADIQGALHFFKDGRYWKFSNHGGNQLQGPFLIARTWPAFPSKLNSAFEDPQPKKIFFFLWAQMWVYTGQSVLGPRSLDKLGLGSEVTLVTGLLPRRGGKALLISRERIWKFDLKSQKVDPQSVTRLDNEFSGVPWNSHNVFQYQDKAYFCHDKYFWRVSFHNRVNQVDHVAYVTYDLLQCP
T1 sequence (A0A2K5UU71 entry or part of it): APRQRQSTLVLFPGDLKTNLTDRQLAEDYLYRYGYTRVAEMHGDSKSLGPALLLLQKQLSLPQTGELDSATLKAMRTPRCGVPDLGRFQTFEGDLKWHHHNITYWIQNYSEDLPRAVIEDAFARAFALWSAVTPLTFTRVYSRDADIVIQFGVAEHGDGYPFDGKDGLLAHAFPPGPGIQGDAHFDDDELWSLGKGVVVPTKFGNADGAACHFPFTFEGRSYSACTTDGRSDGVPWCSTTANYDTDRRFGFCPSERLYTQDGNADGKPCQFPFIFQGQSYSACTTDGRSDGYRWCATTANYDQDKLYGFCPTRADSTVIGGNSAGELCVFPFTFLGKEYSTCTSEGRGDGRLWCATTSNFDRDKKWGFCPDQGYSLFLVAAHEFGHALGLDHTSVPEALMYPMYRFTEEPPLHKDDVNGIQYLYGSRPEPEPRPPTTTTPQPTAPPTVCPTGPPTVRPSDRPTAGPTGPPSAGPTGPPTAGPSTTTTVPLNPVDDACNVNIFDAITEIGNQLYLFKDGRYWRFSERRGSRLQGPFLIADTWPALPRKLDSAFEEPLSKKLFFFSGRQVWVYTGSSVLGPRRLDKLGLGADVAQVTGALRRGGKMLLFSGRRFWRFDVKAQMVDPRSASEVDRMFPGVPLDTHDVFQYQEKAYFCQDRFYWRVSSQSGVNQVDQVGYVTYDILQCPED
T3 sequence (P14780 20-707 Q279R/R574P): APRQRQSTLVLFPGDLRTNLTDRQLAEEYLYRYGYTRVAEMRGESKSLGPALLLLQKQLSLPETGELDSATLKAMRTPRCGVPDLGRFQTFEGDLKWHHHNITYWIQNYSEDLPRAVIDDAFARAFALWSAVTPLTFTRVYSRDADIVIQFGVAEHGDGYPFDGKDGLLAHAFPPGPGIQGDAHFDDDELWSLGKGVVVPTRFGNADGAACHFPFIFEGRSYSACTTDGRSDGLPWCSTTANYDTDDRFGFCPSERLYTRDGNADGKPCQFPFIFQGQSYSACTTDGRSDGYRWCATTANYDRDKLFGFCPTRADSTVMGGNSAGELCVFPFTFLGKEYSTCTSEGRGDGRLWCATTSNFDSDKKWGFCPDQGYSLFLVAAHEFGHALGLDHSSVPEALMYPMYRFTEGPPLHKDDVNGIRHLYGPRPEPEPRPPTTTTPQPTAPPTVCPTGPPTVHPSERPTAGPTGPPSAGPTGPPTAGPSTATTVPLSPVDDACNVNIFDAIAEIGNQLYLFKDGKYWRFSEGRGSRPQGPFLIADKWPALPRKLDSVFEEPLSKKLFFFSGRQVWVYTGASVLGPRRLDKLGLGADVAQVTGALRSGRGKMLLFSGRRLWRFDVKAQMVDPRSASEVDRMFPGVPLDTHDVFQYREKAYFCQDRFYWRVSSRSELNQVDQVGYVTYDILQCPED
T4 sequence (P41245 20-730 limits assumed): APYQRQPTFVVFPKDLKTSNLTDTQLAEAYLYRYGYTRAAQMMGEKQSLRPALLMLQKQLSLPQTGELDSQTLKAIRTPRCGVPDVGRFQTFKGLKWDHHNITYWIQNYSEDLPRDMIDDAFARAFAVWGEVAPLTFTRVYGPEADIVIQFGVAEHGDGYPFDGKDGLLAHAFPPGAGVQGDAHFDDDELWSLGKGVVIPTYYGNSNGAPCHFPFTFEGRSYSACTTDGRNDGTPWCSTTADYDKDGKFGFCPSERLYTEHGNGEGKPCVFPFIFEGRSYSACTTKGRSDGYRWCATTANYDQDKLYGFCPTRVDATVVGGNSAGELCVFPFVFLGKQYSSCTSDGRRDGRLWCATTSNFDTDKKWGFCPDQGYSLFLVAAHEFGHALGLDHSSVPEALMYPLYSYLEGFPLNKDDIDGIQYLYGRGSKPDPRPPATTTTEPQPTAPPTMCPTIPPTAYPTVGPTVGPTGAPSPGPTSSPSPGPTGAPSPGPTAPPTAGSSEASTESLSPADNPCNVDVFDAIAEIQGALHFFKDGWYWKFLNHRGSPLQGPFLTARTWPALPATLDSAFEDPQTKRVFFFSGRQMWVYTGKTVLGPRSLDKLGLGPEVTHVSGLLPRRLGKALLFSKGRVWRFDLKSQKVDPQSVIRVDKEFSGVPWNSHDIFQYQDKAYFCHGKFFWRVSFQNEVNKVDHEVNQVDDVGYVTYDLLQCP

B1: AB0045 (antibody, human IgG4 S228P, kappa, V domains shown)
VH: QVQLQESGPGLVKPSETLSLTCTVSGFSLLSYGVHWVRQPPGKGLEWLGVIWTGGTTNYNSALMSRFTISKDDSKNTVYLKMNSLKTEDTAIYYCARYYYGMDYWGQGTLVTVSS
VL: DIQMTQSPSSLSASVGDRVTITCKASQDVRNTVAWYQQKPGKAPKLLIYSSSYRNTGVPDRFSGSGSGTDFTLTISSLQAEDVAVYYCQQHYITPYTFGGGTKVEIKR
notes: Humanized AB0041, modified IgG4 (S241P); also called humanized variant anti-MMP9 antibody; VH3/Vk4
**Q.** With B1 as the binder, how does the Kd (Cynomolgus monkey MMP9 [1]) read?
**A.** The Kd was 0.082 nM.

**Q.** What about the Kd (Rat MMP9 [2]) of the same binder?
**A.** Its Kd is 0.311 nM.

**Q.** What about the Kd (Human MMP9 [3]) of the same binder?
**A.** The Kd was 0.168 nM.

**Q.** And the “IC50, MMP9 enzymatic assay under steady-state conditions” value (Human MMP9 [4])?
**A.** Its value is 0.148 nM to 0.161 nM (2×) and 0.158 nM.

**Q.** And the “Activity Assay, Cynomolgus monkey MMP9 IC50” value (Cynomolgus monkey MMP9 [5])?
**A.** Its value is 0.194 nM.

**Q.** What about the “Activity Assay, Mouse MMP9 IC50” value (Mouse MMP9 [6]) of the same binder?
**A.** The value was over 100 nM.

**Q.** And the “Activity Assay, Rat MMP9 IC50” value (Rat MMP9 [7])?
**A.** The value was 8.23 nM.

**Q.** And the “Activity Assay, Human MMP9 IC50” value (Human MMP9 [8])?
**A.** Its value is 0.691 nM.

**Q.** And the Kd (Cynomolgus monkey MMP9 [9])?
**A.** The Kd was under 0.4 nM.

**Q.** And the Kd (Rat MMP9 [10])?
**A.** Its Kd is under 0.4 nM.

**Q.** And the Kd (Human MMP9 [11])?
**A.** The Kd was under 0.4 nM.

**Q.** What about the Kd (Human MMP9 [12]) of the same binder?
**A.** Its Kd is 0.0088 nM.

**Q.** What about the Kd (Cynomolgus monkey MMP9 [13]) of the same binder?
**A.** Its Kd is 0.082 nM.

**Q.** What about the Kd (Mouse MMP9 [14]) of the same binder?
**A.** The Kd was over 100 nM.

**Q.** And the Kd (Rat MMP9 [15])?
**A.** The Kd was 0.311 nM.

**Q.** What about the Kd (Human MMP9 [16]) of the same binder?
**A.** Its Kd is 0.168 nM.

**Q.** And the Kd (Human MMP9 [17])?
**A.** The Kd was about 0.001 nM.

B2: AB0041 (antibody, mouse IgG2b, kappa, V domains shown)
VH: QVQLKESGPGLVAPSQSLSITCTVSGFSLLSYGVHWVRQPPGKGLEWLGVIWTGGTTNYNSALMSRLSISKDDSKSQVFLKMNSLQTDDTAIYYCARYYYGMDYWGQGTSVTVSS
VL: DIVMTQSHKFMSTSVGDRVSITCKASQDVRNTVAWYQQKTGQSPKLLIYSSSYRNTGVPDRFTGSGSGTDFTFTISSVQAEDLAVYFCQQHYITPYTFGGGTKLEIKR
notes: Mouse IgG2b/kappa from hybridoma; derived by aligning the variable region entries to the full chains; also called mouse monoclonal anti-MMP9 antibody (AB0041)
**Q.** With B2 as the binder, how does the Kd (Cynomolgus monkey MMP9 [1]) read?
**A.** The Kd was 0.145 nM.

**Q.** And the Kd (Mouse MMP9 [18])?
**A.** The Kd was over 100 nM.

**Q.** What about the Kd (Rat MMP9 [2]) of the same binder?
**A.** Its Kd is 0.332 nM.

**Q.** And the Kd (Human MMP9 [3])?
**A.** The Kd was 0.133 nM.

**Q.** And the “Activity Assay, Cynomolgus monkey MMP9 IC50” value (Cynomolgus monkey MMP9 [5])?
**A.** Its value is 0.189 nM.

**Q.** And the “Activity Assay, Mouse MMP9 IC50” value (Mouse MMP9 [6])?
**A.** Its value is over 100 nM.

**Q.** What about the “Activity Assay, Rat MMP9 IC50” value (Rat MMP9 [7]) of the same binder?
**A.** Its value is 2.78 nM.

**Q.** What about the “Activity Assay, Human MMP9 IC50” value (Human MMP9 [8]) of the same binder?
**A.** The value was 0.569 nM.

**Q.** What about the Kd (Cynomolgus monkey MMP9 [9]) of the same binder?
**A.** The Kd was under 0.4 nM.

**Q.** And the Kd (Rat MMP9 [10])?
**A.** The Kd was under 0.4 nM.

**Q.** And the Kd (Human MMP9 [11])?
**A.** The Kd was under 0.4 nM.

**Q.** And the Kd (Human MMP9 [12])?
**A.** Its Kd is 0.0004 nM.

**Q.** And the Kd (Cynomolgus monkey MMP9 [13])?
**A.** The Kd was 0.145 nM.

**Q.** What about the Kd (Mouse MMP9 [14]) of the same binder?
**A.** Its Kd is over 100 nM.

**Q.** And the Kd (Rat MMP9 [15])?
**A.** The Kd was 0.332 nM.

**Q.** What about the Kd (Human MMP9 [16]) of the same binder?
**A.** Its Kd is 0.133 nM.

B3: AB0046 (antibody, mouse IgG1, kappa, V domains shown)
VH: QVQLQQPGSVLVRPGASVKLSCTASGYTFTSYWMNWVKQRPGQGLEWIGEIYPISGRTNYNEKFKVKATLTVDTSSSTAYMDLNSLTSEDSAVYYCARSRANWDDYWGQGTTLTVSS
VL: DIQMTQTTSSLSASLGDRVTISCSASQGISNYLNWYQQKPDGTFKLLIYYTSILHSGVPSRFSGSGSGTDYSLTISNLEPEDIATYYCQQYGWLPRTFGGGTKLEIKR
notes: Mouse IgG1/kappa raised in MMP9-knockout mice against mouse MMP9; also called surrogate mouse antibody AB0046
**Q.** How did the “Activity Assay, Cynomolgus monkey MMP9 IC50” value (Cynomolgus monkey MMP9 [5]) turn out when B3 was run?
**A.** The value was over 100 nM.

**Q.** And the “Activity Assay, Mouse MMP9 IC50” value (Mouse MMP9 [6])?
**A.** The value was 0.352 nM.

**Q.** What about the “Activity Assay, Rat MMP9 IC50” value (Rat MMP9 [7]) of the same binder?
**A.** Its value is over 100 nM.

**Q.** What about the “Activity Assay, Human MMP9 IC50” value (Human MMP9 [8]) of the same binder?
**A.** The value was over 100 nM.

**Q.** And the Kd (Mouse MMP9 [14])?
**A.** The Kd was 0.218 nM.

**Q.** What about the Kd (Human MMP9 [16]) of the same binder?
**A.** The Kd was over 100 nM.
